Numbered stars: 1 amine (or outer) side, 2 acyl side, 3 side chain; on linkers, the order of the positions; unused ones are H or OH. Square brackets hold non-standard residues; d marks the D form. Side chains are listed from the residue outwards. Ends that are not written are not given here. * marks the point of attachment. C20 diacid = O=C(O)CCCCCCCCCCCCCCCCCCC(=O)*; γGlu = O=C(O)[C@H](CCC(=O)[*:2])N[*:1]; AEEA = NCCOCCOCC(=O)O; Aib = CC(C)(N)C(=O)O
T1: human GIP receptor (human, UniProt P48546 22-466)
T1 construct: whole, on cells; Used as crude membranes of stably transfected CHO cells; also called hGIPR
T1 sequence (looked up): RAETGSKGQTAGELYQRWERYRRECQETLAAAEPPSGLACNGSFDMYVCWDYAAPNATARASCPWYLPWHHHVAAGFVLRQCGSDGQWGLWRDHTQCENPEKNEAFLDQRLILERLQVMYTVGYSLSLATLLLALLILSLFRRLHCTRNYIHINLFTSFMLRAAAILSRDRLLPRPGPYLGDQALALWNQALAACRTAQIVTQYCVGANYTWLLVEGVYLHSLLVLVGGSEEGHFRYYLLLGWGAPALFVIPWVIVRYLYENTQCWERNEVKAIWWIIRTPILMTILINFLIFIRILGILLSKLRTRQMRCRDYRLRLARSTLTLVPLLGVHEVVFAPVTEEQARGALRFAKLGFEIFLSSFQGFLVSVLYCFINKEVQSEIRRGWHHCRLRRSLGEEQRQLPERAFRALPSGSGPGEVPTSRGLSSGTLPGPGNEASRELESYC

B1: Example 23 (peptide)
peptide: Y[Aib]EGTFTSDK([AEEA-AEEA-γGlu-C20 diacid])SILLDKIAQ[Aib]AFIEYLIEGGPSSGAPPPS-NH2
modifications: N-terminus assumed
SMILES: CC[C@H](C)[C@H](NC(=O)[C@H](CCCCN)NC(=O)[C@H](CC(=O)O)NC(=O)[C@H](CC(C)C)NC(=O)[C@H](CC(C)C)NC(=O)[C@@H](NC(=O)[C@H](CO)NC(=O)[C@H](CCCCNC(=O)COCCOCCNC(=O)COCCOCCNC(=O)CC[C@H](NC(=O)CCCCCCCCCCCCCCCCCCC(=O)O)C(=O)O)NC(=O)[C@H](CC(=O)O)NC(=O)[C@H](CO)NC(=O)[C@@H](NC(=O)[C@H](Cc1ccccc1)NC(=O)[C@@H](NC(=O)CNC(=O)[C@H](CCC(=O)O)NC(=O)C(C)(C)NC(=O)[C@@H](N)Cc1ccc(O)cc1)[C@@H](C)O)[C@@H](C)O)[C@@H](C)CC)C(=O)N[C@@H](C)C(=O)N[C@@H](CCC(N)=O)C(=O)NC(C)(C)C(=O)N[C@@H](C)C(=O)N[C@@H](Cc1ccccc1)C(=O)N[C@H](C(=O)N[C@@H](CCC(=O)O)C(=O)N[C@@H](Cc1ccc(O)cc1)C(=O)N[C@@H](CC(C)C)C(=O)N[C@H](C(=O)N[C@@H](CCC(=O)O)C(=O)NCC(=O)NCC(=O)N1CCC[C@H]1C(=O)N[C@@H](CO)C(=O)N[C@@H](CO)C(=O)NCC(=O)N[C@@H](C)C(=O)N1CCC[C@H]1C(=O)N1CCC[C@H]1C(=O)N1CCC[C@H]1C(=O)N[C@@H](CO)C(N)=O)[C@@H](C)CC)[C@@H](C)CC
B2: Example 28 (peptide)
peptide: Y[Aib]EGTFTSDYSILLK([AEEA-AEEA-γGlu-C20 diacid])KIAQ[Aib]AFIEYLIEGGPSSGAPPPS-NH2
modifications: N-terminus assumed
SMILES: CC[C@H](C)[C@H](NC(=O)[C@H](CCCCN)NC(=O)[C@H](CCCCNC(=O)COCCOCCNC(=O)COCCOCCNC(=O)CC[C@H](NC(=O)CCCCCCCCCCCCCCCCCCC(=O)O)C(=O)O)NC(=O)[C@H](CC(C)C)NC(=O)[C@H](CC(C)C)NC(=O)[C@@H](NC(=O)[C@H](CO)NC(=O)[C@H](Cc1ccc(O)cc1)NC(=O)[C@H](CC(=O)O)NC(=O)[C@H](CO)NC(=O)[C@@H](NC(=O)[C@H](Cc1ccccc1)NC(=O)[C@@H](NC(=O)CNC(=O)[C@H](CCC(=O)O)NC(=O)C(C)(C)NC(=O)[C@@H](N)Cc1ccc(O)cc1)[C@@H](C)O)[C@@H](C)O)[C@@H](C)CC)C(=O)N[C@@H](C)C(=O)N[C@@H](CCC(N)=O)C(=O)NC(C)(C)C(=O)N[C@@H](C)C(=O)N[C@@H](Cc1ccccc1)C(=O)N[C@H](C(=O)N[C@@H](CCC(=O)O)C(=O)N[C@@H](Cc1ccc(O)cc1)C(=O)N[C@@H](CC(C)C)C(=O)N[C@H](C(=O)N[C@@H](CCC(=O)O)C(=O)NCC(=O)NCC(=O)N1CCC[C@H]1C(=O)N[C@@H](CO)C(=O)N[C@@H](CO)C(=O)NCC(=O)N[C@@H](C)C(=O)N1CCC[C@H]1C(=O)N1CCC[C@H]1C(=O)N1CCC[C@H]1C(=O)N[C@@H](CO)C(N)=O)[C@@H](C)CC)[C@@H](C)CC
B3: Example 85 (peptide)
peptide: Y[Aib]EGTFTSDASILLDKK([AEEA-AEEA-γGlu-C20 diacid])AQ[Aib]AFIEYLIEGGPSSGAPPPS-NH2
modifications: N-terminus assumed
SMILES: CC[C@H](C)[C@H](NC(=O)[C@H](CC(C)C)NC(=O)[C@H](Cc1ccc(O)cc1)NC(=O)[C@H](CCC(=O)O)NC(=O)[C@@H](NC(=O)[C@H](Cc1ccccc1)NC(=O)[C@H](C)NC(=O)C(C)(C)NC(=O)[C@H](CCC(N)=O)NC(=O)[C@H](C)NC(=O)[C@H](CCCCNC(=O)COCCOCCNC(=O)COCCOCCNC(=O)CC[C@H](NC(=O)CCCCCCCCCCCCCCCCCCC(=O)O)C(=O)O)NC(=O)[C@H](CCCCN)NC(=O)[C@H](CC(=O)O)NC(=O)[C@H](CC(C)C)NC(=O)[C@H](CC(C)C)NC(=O)[C@@H](NC(=O)[C@H](CO)NC(=O)[C@H](C)NC(=O)[C@H](CC(=O)O)NC(=O)[C@H](CO)NC(=O)[C@@H](NC(=O)[C@H](Cc1ccccc1)NC(=O)[C@@H](NC(=O)CNC(=O)[C@H](CCC(=O)O)NC(=O)C(C)(C)NC(=O)[C@@H](N)Cc1ccc(O)cc1)[C@@H](C)O)[C@@H](C)O)[C@@H](C)CC)[C@@H](C)CC)C(=O)N[C@@H](CCC(=O)O)C(=O)NCC(=O)NCC(=O)N1CCC[C@H]1C(=O)N[C@@H](CO)C(=O)N[C@@H](CO)C(=O)NCC(=O)N[C@@H](C)C(=O)N1CCC[C@H]1C(=O)N1CCC[C@H]1C(=O)N1CCC[C@H]1C(=O)N[C@@H](CO)C(N)=O
B4: Example 38 (peptide)
peptide: Y[Aib]EGTFTSDYSILLDKIAQ[Aib]AFIEYLIEK([AEEA-AEEA-γGlu-C20 diacid])GPSSGAPPPS-NH2
modifications: N-terminus assumed
SMILES: CC[C@H](C)[C@H](NC(=O)[C@H](CCCCN)NC(=O)[C@H](CC(=O)O)NC(=O)[C@H](CC(C)C)NC(=O)[C@H](CC(C)C)NC(=O)[C@@H](NC(=O)[C@H](CO)NC(=O)[C@H](Cc1ccc(O)cc1)NC(=O)[C@H](CC(=O)O)NC(=O)[C@H](CO)NC(=O)[C@@H](NC(=O)[C@H](Cc1ccccc1)NC(=O)[C@@H](NC(=O)CNC(=O)[C@H](CCC(=O)O)NC(=O)C(C)(C)NC(=O)[C@@H](N)Cc1ccc(O)cc1)[C@@H](C)O)[C@@H](C)O)[C@@H](C)CC)C(=O)N[C@@H](C)C(=O)N[C@@H](CCC(N)=O)C(=O)NC(C)(C)C(=O)N[C@@H](C)C(=O)N[C@@H](Cc1ccccc1)C(=O)N[C@H](C(=O)N[C@@H](CCC(=O)O)C(=O)N[C@@H](Cc1ccc(O)cc1)C(=O)N[C@@H](CC(C)C)C(=O)N[C@H](C(=O)N[C@@H](CCC(=O)O)C(=O)N[C@@H](CCCCNC(=O)COCCOCCNC(=O)COCCOCCNC(=O)CC[C@H](NC(=O)CCCCCCCCCCCCCCCCCCC(=O)O)C(=O)O)C(=O)NCC(=O)N1CCC[C@H]1C(=O)N[C@@H](CO)C(=O)N[C@@H](CO)C(=O)NCC(=O)N[C@@H](C)C(=O)N1CCC[C@H]1C(=O)N1CCC[C@H]1C(=O)N1CCC[C@H]1C(=O)N[C@@H](CO)C(N)=O)[C@@H](C)CC)[C@@H](C)CC
B5: Example 26 (peptide)
peptide: Y[Aib]EGTFTSDYSIK([AEEA-AEEA-γGlu-C20 diacid])LDKIAQ[Aib]AFIEYLIEGGPSSGAPPPS-NH2
modifications: N-terminus assumed
SMILES: CC[C@H](C)[C@H](NC(=O)[C@H](CCCCN)NC(=O)[C@H](CC(=O)O)NC(=O)[C@H](CC(C)C)NC(=O)[C@H](CCCCNC(=O)COCCOCCNC(=O)COCCOCCNC(=O)CC[C@H](NC(=O)CCCCCCCCCCCCCCCCCCC(=O)O)C(=O)O)NC(=O)[C@@H](NC(=O)[C@H](CO)NC(=O)[C@H](Cc1ccc(O)cc1)NC(=O)[C@H](CC(=O)O)NC(=O)[C@H](CO)NC(=O)[C@@H](NC(=O)[C@H](Cc1ccccc1)NC(=O)[C@@H](NC(=O)CNC(=O)[C@H](CCC(=O)O)NC(=O)C(C)(C)NC(=O)[C@@H](N)Cc1ccc(O)cc1)[C@@H](C)O)[C@@H](C)O)[C@@H](C)CC)C(=O)N[C@@H](C)C(=O)N[C@@H](CCC(N)=O)C(=O)NC(C)(C)C(=O)N[C@@H](C)C(=O)N[C@@H](Cc1ccccc1)C(=O)N[C@H](C(=O)N[C@@H](CCC(=O)O)C(=O)N[C@@H](Cc1ccc(O)cc1)C(=O)N[C@@H](CC(C)C)C(=O)N[C@H](C(=O)N[C@@H](CCC(=O)O)C(=O)NCC(=O)NCC(=O)N1CCC[C@H]1C(=O)N[C@@H](CO)C(=O)N[C@@H](CO)C(=O)NCC(=O)N[C@@H](C)C(=O)N1CCC[C@H]1C(=O)N1CCC[C@H]1C(=O)N1CCC[C@H]1C(=O)N[C@@H](CO)C(N)=O)[C@@H](C)CC)[C@@H](C)CC
B6: Example 35 (peptide)
peptide: Y[Aib]EGTFTSDYSILLDKIAQ[Aib]AFIEYK([AEEA-AEEA-γGlu-C20 diacid])IEGGPSSGAPPPS-NH2
modifications: N-terminus assumed
SMILES: CC[C@H](C)[C@H](NC(=O)[C@H](CCCCN)NC(=O)[C@H](CC(=O)O)NC(=O)[C@H](CC(C)C)NC(=O)[C@H](CC(C)C)NC(=O)[C@@H](NC(=O)[C@H](CO)NC(=O)[C@H](Cc1ccc(O)cc1)NC(=O)[C@H](CC(=O)O)NC(=O)[C@H](CO)NC(=O)[C@@H](NC(=O)[C@H](Cc1ccccc1)NC(=O)[C@@H](NC(=O)CNC(=O)[C@H](CCC(=O)O)NC(=O)C(C)(C)NC(=O)[C@@H](N)Cc1ccc(O)cc1)[C@@H](C)O)[C@@H](C)O)[C@@H](C)CC)C(=O)N[C@@H](C)C(=O)N[C@@H](CCC(N)=O)C(=O)NC(C)(C)C(=O)N[C@@H](C)C(=O)N[C@@H](Cc1ccccc1)C(=O)N[C@H](C(=O)N[C@@H](CCC(=O)O)C(=O)N[C@@H](Cc1ccc(O)cc1)C(=O)N[C@@H](CCCCNC(=O)COCCOCCNC(=O)COCCOCCNC(=O)CC[C@H](NC(=O)CCCCCCCCCCCCCCCCCCC(=O)O)C(=O)O)C(=O)N[C@H](C(=O)N[C@@H](CCC(=O)O)C(=O)NCC(=O)NCC(=O)N1CCC[C@H]1C(=O)N[C@@H](CO)C(=O)N[C@@H](CO)C(=O)NCC(=O)N[C@@H](C)C(=O)N1CCC[C@H]1C(=O)N1CCC[C@H]1C(=O)N1CCC[C@H]1C(=O)N[C@@H](CO)C(N)=O)[C@@H](C)CC)[C@@H](C)CC
B7: Example 204 (peptide)
peptide: YXEGTXTSDXSIXLDEKAQXEFIXYLIEGGPSSGAPPPS
modifications: Aib2; αMeF(2F)6; 4Pal10; αMeL13; K17((2-[2-(2-Amino-ethoxy)-ethoxy]-acetyl)2-(γ-Glu)-CO-(CH2)16-CO2H); Aib20; D-Glu24; C-terminal NH2

Columns and labels:
human GLP-1 receptor = target: T2, human GLP-1 receptor (human, UniProt P43220 24-463); test: SPA, [125I]-GLP-1 displacement, hGLP-1R membranes
T2 construct: whole, on cells; Used as crude membranes of stably transfected HEK293 cells; also called hGLP1R; hGLP-1R

human GIP receptor = target: T1, human GIP receptor; test: SPA, [125I]-GIP displacement, hGIPR membranes

Binder | Ki (human GLP-1 receptor) [nM] | Ki (human GIP receptor) [nM]
B1 | 6.32 | 0.258
B2 | 21.1 | 0.24
Y[Aib]EGTFTSDYSILLDKIAQ[Aib]AFK([AEEA-AEEA-γGlu-C20 diacid])EYLIEGGPSSGAPPPS-NH2 [Example 33] | 361 | 6.4
B3 | 1.87 | 0.621
B4 | 31.3 | 0.104
B5 | 4.22 | 0.176
B6 | 54.6 | 0.0358
B7 | – | 0.0704
